We go through four molecules from patent publication US6350731.

Where no end group is shown, it is not given here.

Test [1] addresses 2 DMB. Briefly: CELIA on monoclonal 2 DMB; coated antigen not given.
Test [2] has as its target 4 DMB. Put plainly: CELIA on monoclonal 4 DMB; coated antigen not given.
Test [3] concerns the target 9 DB-1. Briefly: CELIA on monoclonal 9 DB-1; coated antigen not given.
Test [4] deals with 13 DB-1. Put plainly: CELIA on monoclonal 13 DB-1; coated antigen not given.
The target in test [5] is 17 DB-1. Put plainly: CELIA on monoclonal 17 DB-1; coated antigen not given.
Test [6] addresses 19 DB-1. Briefly: CELIA on monoclonal 19 DB-1; coated antigen not given.
Test [7] addresses 21 DB-1. Put plainly: CELIA on monoclonal 21 DB-1; coated antigen not given.
In test [8] the target is 22 DB-1. Put plainly: CELIA on monoclonal 22 DB-1; coated antigen not given.
In test [9] the target is Rb 37. Briefly: competitive ELISA on antiserum Rb 37; coated antigen not given. (ELISA stands for enzyme-linked immunosorbent assay.)
For test [10], the target named is Rb 38. Briefly: competitive ELISA on antiserum Rb 38; coated antigen not given.
The target in test [11] is Rb 39. Briefly: competitive ELISA on antiserum Rb 39; coated antigen not given.
In test [12] the target is Rb 65. Put plainly: competitive ELISA on antiserum Rb 65; coated antigen not given.
Test [13] deals with Rb 66. Briefly: competitive ELISA on antiserum Rb 66; coated antigen not given.
In test [14] the target is Rb 109. Briefly: competitive ELISA on antiserum Rb 109; coated antigen not given.
Test [15] concerns the target Rb 112. Put plainly: competitive ELISA on antiserum Rb 112; coated antigen not given.
The target of test [16] is 10 DB-1. Put plainly: CELIA on monoclonal 10 DB-1; coated antigen not given.
The target of test [17] is 12 DB-1. Briefly: CELIA on monoclonal 12 DB-1; coated antigen not given.
Test [18] concerns the target Rb 67. Briefly: competitive ELISA on antiserum Rb 67; coated antigen not given.
Test [19] addresses Rb 68. Briefly: competitive ELISA on antiserum Rb 68; coated antigen not given.
The target of test [20] is Rb 78. Put plainly: competitive ELISA on antiserum Rb 78; coated antigen not given.

Take Ac-ISRRLIDRTNANFLVWPPC [GP10]: the IC50 (as a rule, the concentration needed to halve the response being measured) in test [1] was 2000 nM; in [2], 150 nM; in test [3], 1200 nM; in test [4], 400 nM; in test [5], 3000 nM; in [6], 18 nM. The IC50 in [7] was determined as 30 nM; in test [8], 25 nM; in test [9], 10 nM; in [10], 74 nM; in test [11] it was 2 nM; in [12], 3 nM. Moreover, the IC50 in test [13] was less than 2 nM; in test [14], 4 nM; in test [15] it was 3 nM.

Consider Ac-ISRRLIDRTNANFLC (not fully specified; printed as Ac-25I-S-R-R-L-I-D-R-T-N-A-N-F-L38-C) [GP4], for which the half-maximal inhibitory concentration (IC50) is 2000 nM in test [1]; 150 nM in test [2]; 1000 nM in [3]; 400 nM in test [16]; 2000 nM in test [17]; 200 nM in test [4]. In addition, the IC50 in [5] was 180 nM; in test [6], 18 nM; in [7], 18 nM; in test [8], 20 nM; in [9], 20 nM; in test [10] it was 150 nM. Besides, the IC50 in test [11] is 2 nM; in test [12], 3 nM; in [13], less than 2 nM; in [14], 2 nM; in [15], 2 nM.

In the case of Ac-RKIEIVRKKC [GP8], the IC50 was 2 nM in test [18] and less than 2 nM in [19].

RKIEIVRKKPIFKKATV [GP21a] had an IC50 in test [20] of 100 nM.
